The values below come from publication PMC3843635 (Protein Science : A Publication of the Protein Society, 2013).

Assay [1] has as its target Keap1-Nrf2 protein-protein interaction (CFP-Nrf2 and YFP-Kelch) (Homo sapiens, UniProt Q14145). The assay is described as follows: FRET competition assay. The format is binding. Particulars: for binding activity relative to peptide 1: FRET competition, 7-mer peptides; for effect on association between CFP-Nrf2 and YFP-Kelch (FRET efficiency): unlabeled 16-mer peptides, competition assay, Fig. 5.

Assay [2] deals with Keap1-Nrf2 protein-protein interaction. The conditions noted are these: read-out: FP IC50 ± SE; previously described FP assay; cited from earlier work.
Assay [3] deals with T1, YFP conjugated to the human Keap1 Kelch domain (YFP-Kelch) (human, UniProt Q14145 321-609). In words: FRET or BRET.
T1 sequence (Q14145 321-609): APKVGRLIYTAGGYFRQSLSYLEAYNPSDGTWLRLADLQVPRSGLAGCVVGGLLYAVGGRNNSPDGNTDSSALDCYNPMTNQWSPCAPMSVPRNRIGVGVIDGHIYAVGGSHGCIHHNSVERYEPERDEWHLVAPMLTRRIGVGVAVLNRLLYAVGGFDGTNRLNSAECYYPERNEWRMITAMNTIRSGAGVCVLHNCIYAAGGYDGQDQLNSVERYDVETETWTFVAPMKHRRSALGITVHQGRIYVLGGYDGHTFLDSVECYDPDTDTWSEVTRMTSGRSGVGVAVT
The target of assay [4] is T1, YFP conjugated to the human Keap1 Kelch …. In words: FRET or BRET. The source holds these as a separate data set.
For assay [5] the target is unchanged. The assay is described as follows: FRET or BRET. This is another data set of the same source.

Like-named read-outs stand apart in the source and are kept apart here. Where a SMILES comes first, the peptide text is derived from it. The star is where a group is joined. Bz = O=C(c1ccccc1)* Some results are limits rather than exact numbers.

Keap1-Nrf2 protein-protein interaction (CFP-Nrf2 and YFP-Kelch), sequence (Q14145 321-609): as above

With `CC(=O)N[C@@H](CC(=O)O)C(=O)N1CCC[C@H]1C(=O)N[C@@H](CCC(=O)O)C(=O)N[C@H](C(=O)NCC(=O)N[C@@H](CCC(=O)O)C(=O)N[C@@H](Cc1ccccc1)C(=O)O)[C@@H](C)O` [Peptide 3, Ac-DPETGEF-OH] (Ac-DPETGEF-OH), the “binding activity relative to peptide 1” value in assay [1] is “increased binding activity”. Besides, in assay [2], the IC50 was 250 ± 40 nM.
Consider `CC(C)C[C@H](NC(=O)[C@H](CCC(=O)O)NC(=O)CNC(=O)[C@@H](NC(=O)[C@H](CCC(=O)O)NC(=O)[C@@H]1CCCN1C(=O)[C@H](CC(=O)O)NC(=O)c1ccccc1)[C@@H](C)O)C(=O)O` [Peptide 4, Ph-DPETGEL-OH] (Bz-DPETGEL-OH; N-terminus assumed), for which, in assay [1], the “binding activity relative to peptide 1” value is on record as “increased binding activity”. Also, the IC50 in assay [2] was 160 ± 20 nM.
As for E78P/F83L (AFFAQLQLDPETGELL), the “effect on association between CFP-Nrf2 and YFP-Kelch (FRET efficiency)” value in assay [1] was “dose-dependent reduction in FE”.
In the case of “E79Q (AFFAQLQLDEQTGEFL) [Peptide E79Q, reference compound]”, the “effect on association between CFP-Nrf2 and YFP-Kelch (FRET efficiency)” value in assay [1] was “unable to perturb the association”.
Same read-out and setting: then “E82D (AFFAQLQLDEETGDFL) [Peptide E82D, reference compound]”, with “unable to perturb the association”; and “T80K (AFFAQLQLDEEKGEFL) [Peptide T80K, reference compound]”, with “unable to perturb the association”.
For the molecule AFFAQLQLDEEKGEFL [CFP-T80K], in assay [3], the Kd is > 100 nM.
Turning to AFFAQLQLDEETGDFL [CFP-E82D], in assay [3], the Kd was > 100 nM.
As to AFFAQLQLDPETGELL [E78P/F83L unlabeled 16-mer peptide], in assay [4], it took 80 nM to reach half-maximal inhibition (IC50).
In turn, AFFAQLQLDPETGELL [CFP-E78P/F83L] registered a Kd in assay [3] of 40 nM.
Regarding Ac-DPETGEF-OH [peptide 3, Ac-DPETGEF-OH], in assay [5], half-maximal inhibition (IC50) required 330 nM.
For the molecule AFFAQLQLDEQTGEFL [CFP-E79Q], in assay [3], the Kd is > 100 nM.
